Among the data in the Human Domainome abundance scans (Beltran et al. 2025) are abundance fitness values, retold here.

To fix the notation:
B1: Protein C-ets-1, residues 55 to 135; numbered along this chain, P14921 (parent)
chain: GFTKEQQRLGIPKDPRQWTETHVRDWVMWAVNEFSLKGVDFQKFCMNGAALCALGKDCFLELAPDFVGDILWEHLEILQKE

± gives the uncertainty stated by the source.

Variants of B1 are the subject of this data set. Kind of data set: abundance fitness (aPCA) (normalised: wild type 0, dead -1); higher = more abundant; growth selection in yeast, the domain comes from the species named. The settings on record: Homo sapiens.
For the variant D57Q, the abundance fitness was -0.073 ± 0.045.

As for D57C, the abundance fitness is -0.106 ± 0.065.

On to D57H, for which the abundance fitness was -0.049 ± 0.058.

As for D57Y, the abundance fitness was -0.326 ± 0.1.

Regarding P12K, the abundance fitness was -0.419 ± 0.14.

Consider P12E, for which the abundance fitness is -0.413 ± 0.086.

For P12S, the abundance fitness was -0.28 ± 0.047.

Regarding P12V, the abundance fitness was -0.763 ± 0.065.

For P12H, the abundance fitness was -0.379 ± 0.12.

Take R16L: the abundance fitness was -0.025 ± 0.046.

On to R16M, for which the abundance fitness is -0.029 ± 0.051.

As for R16S, the abundance fitness was -0.096 ± 0.041.

Turning to R16D, the abundance fitness is -0.147 ± 0.052.

For the variant R16W, the abundance fitness was -0.107 ± 0.062.

Take F66C: the abundance fitness was -0.031 ± 0.054.

Regarding F66A, the abundance fitness came out at 0.02 ± 0.045.

Turning to I11W, the abundance fitness was -0.078 ± 0.062.

Consider I11N, for which the abundance fitness was -0.288 ± 0.074.

For the variant I11E, the abundance fitness was -0.773 ± 0.098.

I11P: the abundance fitness was -0.465 ± 0.056.

Regarding I11V, the abundance fitness is -0.09 ± 0.026.

For the variant N47G, the abundance fitness is -0.185 ± 0.038.

For the variant F2P, the abundance fitness was -0.398 ± 0.074.

Take F2R: the abundance fitness was -0.298 ± 0.052.

On to F2V, for which the abundance fitness was -0.289 ± 0.047.

On to F2I, for which the abundance fitness is -0.355 ± 0.11.

For the variant F2C, the abundance fitness was -0.408 ± 0.08.

With F2A, the abundance fitness is -0.24 ± 0.057.

For E20A, the abundance fitness was -0.035 ± 0.025.

With E20K, the abundance fitness is -0.036 ± 0.063.

On to E20Y, for which the abundance fitness was -0.224 ± 0.05.

For the variant E20G, the abundance fitness was -0.264 ± 0.023.

In the case of E20P, the abundance fitness was -0.059 ± 0.035.

As to L54T, the abundance fitness was -0.33 ± 0.042.

Consider L54S, for which the abundance fitness is -0.445 ± 0.032.

In the case of L54P, the abundance fitness is -0.775 ± 0.072.

Regarding L54R, the abundance fitness is -0.238 ± 0.028.

Regarding L54G, the abundance fitness is -0.229 ± 0.027.

As for L54I, the abundance fitness is -0.078 ± 0.064.

L54H: the abundance fitness is -0.598 ± 0.078.

Take L54Y: the abundance fitness was -0.292 ± 0.033.

As to L54Q, the abundance fitness is -0.299 ± 0.056.

L62P: the abundance fitness is -0.954 ± 0.11.

L62I: the abundance fitness is -0.049 ± 0.094.

With L62V, the abundance fitness was -0.34 ± 0.035.

Take L62C: the abundance fitness is -0.265 ± 0.048.

Take D40E: the abundance fitness was -0.059 ± 0.055.

In the case of D40C, the abundance fitness was -0.134 ± 0.057.

Consider D40F, for which the abundance fitness was -0.685 ± 0.11.

As for D40K, the abundance fitness was -0.234 ± 0.09.

For D40R, the abundance fitness is -0.245 ± 0.038.

Regarding D40T, the abundance fitness was -0.363 ± 0.065.

With P15K, the abundance fitness is -0.813 ± 0.25.

Consider P15D, for which the abundance fitness is -1.15 ± 0.45.

Take F41S: the abundance fitness was -0.042 ± 0.036.

Consider F41E, for which the abundance fitness was -0.031 ± 0.052.

On to F41T, for which the abundance fitness came out at 0.007 ± 0.047.

Take F41G: the abundance fitness is -0.128 ± 0.031.

On to F41N, for which the abundance fitness was -0.039 ± 0.11.

Consider C58A, for which the abundance fitness was determined as 0.049 ± 0.036.

As to C58G, the abundance fitness stood at 0.049 ± 0.024.

For C58F, the abundance fitness is -0.096 ± 0.051.

Turning to C58I, the abundance fitness is -0.094 ± 0.073.

Regarding C58E, the abundance fitness worked out at 0.05 ± 0.04.

For C58L, the abundance fitness was -0.026 ± 0.033.

In the case of C58S, the abundance fitness is 0.035 ± 0.027.

For the variant K13V, the abundance fitness is -0.1 ± 0.049.

Regarding K13N, the abundance fitness was 0.008 ± 0.11.

Consider K13Q, for which the abundance fitness was -0.059 ± 0.067.

As for K13T, the abundance fitness is -0.064 ± 0.062.

Turning to K13Y, the abundance fitness is -0.249 ± 0.11.

With K13R, the abundance fitness is -0.077 ± 0.034.

For V39R, the abundance fitness was -0.749 ± 0.049.

With V39D, the abundance fitness was -0.699 ± 0.097.

Regarding V23I, the abundance fitness was -0.438 ± 0.045.

Turning to V23S, the abundance fitness was -0.48 ± 0.034.

Regarding V23A, the abundance fitness is -0.631 ± 0.054.

Turning to V23T, the abundance fitness was -0.126 ± 0.05.

Regarding V23G, the abundance fitness was -0.967 ± 0.079.

As for L78N, the abundance fitness was -0.775 ± 0.15.

For L78F, the abundance fitness is -0.39 ± 0.06.

For the variant L78K, the abundance fitness was -0.649 ± 0.079.

L78G: the abundance fitness is -0.566 ± 0.04.

For the variant L78A, the abundance fitness was -0.299 ± 0.057.

Regarding L78I, the abundance fitness is -0.098 ± 0.078.

Regarding L78Q, the abundance fitness was -0.199 ± 0.053.

In the case of K43T, the abundance fitness is -0.302 ± 0.048.

With K43D, the abundance fitness is -0.2 ± 0.068.

As to K43Q, the abundance fitness is -0.086 ± 0.052.

In the case of K43E, the abundance fitness is -0.283 ± 0.049.

Take E5L: the abundance fitness is -0.108 ± 0.044.

For the variant E5G, the abundance fitness is -0.253 ± 0.028.

For the variant E5H, the abundance fitness was -0.087 ± 0.095.

As for E5T, the abundance fitness is -0.117 ± 0.069.

As to E5D, the abundance fitness was -0.216 ± 0.085.

On to K56S, for which the abundance fitness was -0.7 ± 0.055.

Consider K56W, for which the abundance fitness is -0.729 ± 0.084.

Turning to K56A, the abundance fitness is -0.482 ± 0.04.

As to K56F, the abundance fitness was -0.865 ± 0.18.

Consider K37A, for which the abundance fitness was -0.046 ± 0.033.

With K37L, the abundance fitness is -0.161 ± 0.029.

With K37I, the abundance fitness was -0.064 ± 0.081.

Regarding K37R, the abundance fitness is -0.076 ± 0.027.

For K37H, the abundance fitness was -0.048 ± 0.068.

Take K37V: the abundance fitness is -0.017 ± 0.026.

Regarding K37Y, the abundance fitness was -0.255 ± 0.059.

As to K37E, the abundance fitness turned out to be 0.044 ± 0.047.

Consider W18V, for which the abundance fitness was -0.891 ± 0.077.

Turning to W18R, the abundance fitness was -0.733 ± 0.061.

Regarding W18A, the abundance fitness was -0.967 ± 0.082.

Take H22Y: the abundance fitness was -0.625 ± 0.15.

H22A: the abundance fitness is -0.33 ± 0.032.

Consider H22E, for which the abundance fitness is -0.062 ± 0.057.

Consider H22T, for which the abundance fitness was -0.528 ± 0.049.

As to H22W, the abundance fitness is -0.904 ± 0.1.

On to H22D, for which the abundance fitness is -0.047 ± 0.066.

Regarding E33P, the abundance fitness was -0.796 ± 0.074.

With E33A, the abundance fitness is -0.071 ± 0.033.

Take E33H: the abundance fitness was -0.006 ± 0.066.

As for P64F, the abundance fitness was -0.896 ± 0.22.

As for P64V, the abundance fitness was -0.836 ± 0.085.

For P64Q, the abundance fitness was -0.288 ± 0.065.

P64N: the abundance fitness is -0.296 ± 0.14.

Consider P64I, for which the abundance fitness is -0.891 ± 0.22.

P64H: the abundance fitness is -0.34 ± 0.091.

As to E73Q, the abundance fitness was -0.032 ± 0.063.

In the case of E73M, the abundance fitness was -0.277 ± 0.068.

In the case of E73F, the abundance fitness was -0.251 ± 0.059.

Turning to E73D, the abundance fitness was found to be 0.04 ± 0.09.

Regarding Q42P, the abundance fitness is -0.214 ± 0.04.

As for Q42L, the abundance fitness was -0.307 ± 0.036.

For Q42E, the abundance fitness came out at 0.021 ± 0.068.

For Q42Y, the abundance fitness is -0.291 ± 0.073.

Consider Q42R, for which the abundance fitness was -0.017 ± 0.034.

Consider Q42A, for which the abundance fitness was -0.071 ± 0.035.

Regarding H74V, the abundance fitness is -0.419 ± 0.039.

As to H74E, the abundance fitness was -0.027 ± 0.064.

Consider H74G, for which the abundance fitness was -0.346 ± 0.042.

For H74K, the abundance fitness was -0.273 ± 0.13.

With I77G, the abundance fitness is 0.027 ± 0.035.

Take I77K: the abundance fitness is 0.052 ± 0.094.

Turning to I77V, the abundance fitness was 0.029 ± 0.037.

Turning to M46A, the abundance fitness was -0.652 ± 0.05.

For the variant M46P, the abundance fitness is -0.852 ± 0.076.

In the case of M46E, the abundance fitness is -0.991 ± 0.13.

For G10W, the abundance fitness is -0.364 ± 0.048.

With G10R, the abundance fitness is -0.056 ± 0.033.

As to W29I, the abundance fitness was -0.803 ± 0.11.

Regarding W29Q, the abundance fitness was -0.59 ± 0.058.

Consider W29E, for which the abundance fitness is -0.561 ± 0.068.

On to W29K, for which the abundance fitness is -0.659 ± 0.064.

Consider C52K, for which the abundance fitness was -0.627 ± 0.052.

Take C52G: the abundance fitness is -0.562 ± 0.024.

With L9W, the abundance fitness is -0.192 ± 0.043.

Regarding L9I, the abundance fitness was -0.178 ± 0.086.

With S35D, the abundance fitness was 0.017 ± 0.058.

Consider S35T, for which the abundance fitness is -0.034 ± 0.041.

For S35Q, the abundance fitness came to 0.062 ± 0.062.

For the variant S35C, the abundance fitness was -0.072 ± 0.053.

Consider Q17W, for which the abundance fitness was -0.148 ± 0.051.

As for Q17D, the abundance fitness is 0.016 ± 0.07.

With G68E, the abundance fitness was -0.994 ± 0.12.

With G68A, the abundance fitness was -0.116 ± 0.032.

As to G68T, the abundance fitness is -0.204 ± 0.052.

On to G68W, for which the abundance fitness is -0.655 ± 0.087.

Regarding D69G, the abundance fitness was -0.059 ± 0.031.

In the case of D69A, the abundance fitness is -0.031 ± 0.037.
